The labels stand for the following.
B1: H6B1L-EV (antibody, V domains shown)
VH: QMQLVQSGAEVKKPGSSVKVSCKASGGTFSSYAYSWVRQAPGQGLEWMGGIIPSFGTANYAQKFQGRVTITADESTSTAYMELSSLRSEDTAVYYCARGPIVATITPLDYWGQGTLVTVSS
VL: SYVLMQPPSVSVAPGKTATIACGGENIGRKTVHWYQQKPGQAPVLVIYYDSDRPSGIPERFSGSNSGNTATLTISRVEAGDEADYYCLVWDSSSDHRIFGGGTKLTVL
notes: Fully human antibody of an IgG class, light chain variant of H6B1L
B2: H6B1L (antibody, V domains shown)
VH: QMQLVQSGAEVKKPGSSVKVSCKASGGTFSSYAYSWVRQAPGQGLEWMGGIIPSFGTANYAQKFQGRVTITADESTSTAYMELSSLRSEDTAVYYCARGPIVATITPLDYWGQGTLVTVSS
VL: SYELMQPPSVSVAPGKTATIACGGENIGRKTVHWYQQKPGQAPVLVIYYDSDRPSGIPERFSGSNSGNTATLTISRVEAGDEADYYCLVWDSSSDHRIFGGGTKLTVL
notes: Fully human antibody of an IgG class; also called parent antibody H6B1L; wild type antibody H6B1L
B3: H6B1L-EM (antibody, V domains shown)
VH: QMQLVQSGAEVKKPGSSVKVSCKASGGTFSSYAYSWVRQAPGQGLEWMGGIIPSFGTANYAQKFQGRVTITADESTSTAYMELSSLRSEDTAVYYCARGPIVATITPLDYWGQGTLVTVSS
VL: SYVLTQPPSVSVAPGKTATIACGGENIGRKTVHWYQQKPGQAPVLVIYYDSDRPSGIPERFSGSNSGNTATLTISRVEAGDEADYYCLVWDSSSDHRIFGGGTKLTVL
notes: as for B1

The target of this test is T1, human PD-L1 (human, UniProt Q9NZQ7 19-238, limits assumed).
T1 construct: also called Programmed death ligand 1; B7-H1
T1 sequence (Q9NZQ7 19-238 limits assumed): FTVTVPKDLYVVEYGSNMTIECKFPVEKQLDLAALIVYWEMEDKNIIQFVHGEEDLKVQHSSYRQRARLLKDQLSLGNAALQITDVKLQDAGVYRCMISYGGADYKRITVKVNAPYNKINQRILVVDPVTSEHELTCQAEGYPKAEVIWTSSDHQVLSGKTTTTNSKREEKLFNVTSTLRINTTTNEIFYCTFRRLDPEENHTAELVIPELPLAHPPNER
The experiment in a line: Biacore (SPR). (In SPR one partner is held on a chip, and binding of the other changes the refractive index at the surface.)
Usually Kd stands for a measure of binding affinity in units of concentration. What is called koff is the first-order rate constant of dissociation. A high value points to a short-lived complex. What is called kon is the rate constant with which the complex forms. For B1, the Ka is 5.48e+08 M⁻¹, the Kd is 1.82 nM, the koff worked out at 0.00287 s⁻¹ and the on-rate (kon) was found to be 1.57e+06 M⁻¹ s⁻¹.
Consider B2, for which the Ka was 5.4e+08 M⁻¹, the Kd worked out at 1.85 nM, the koff was determined as 0.0028 s⁻¹ and the kon was found to be 1.51e+06 M⁻¹ s⁻¹.
The molecule B3 gave a Ka of 6.44e+08 M⁻¹, a Kd of 1.55 nM, a koff of 0.00214 s⁻¹ and a kon of 1.38e+06 M⁻¹ s⁻¹.
